Test results from article PMC5493754, “Myosin 7 and its adaptors link cadherins to actin” (Nature Communications, 2017).

What was measured:
Assay in all cases: MST; YFP-fused partner held together with a third protein (saturating concentrations; competition experiments), non-fluorescent protein titrated
Settings in all cases: both partners purified
[1] = target: T1, ANKS4B_(CEN-PBM) with YFP-harmonin NPDZ1.PDZ2 (human, UniProt Q8N8V4 259-417; Q9Y6N9-1 1-301)
T1 construct: ANKS4B, human, residues 259-417 of UniProt Q8N8V4; as m43; Harmonin-a1 (USH1C), human, residues 1-301 of UniProt Q9Y6N9-1; as m31; also called ANKS4b+^YFPNPDZ1.PDZ2; ^YFPNPDZ1.PDZ2+ANKS4B_(CEN-PBM); source: purified E. coli proteins mixed
T1 sequence (looked up) 1: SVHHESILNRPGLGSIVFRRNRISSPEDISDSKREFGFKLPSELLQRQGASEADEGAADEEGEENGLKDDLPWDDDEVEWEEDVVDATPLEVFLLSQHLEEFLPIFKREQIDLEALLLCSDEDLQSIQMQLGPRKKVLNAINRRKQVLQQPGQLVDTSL
T1 sequence (looked up) 2: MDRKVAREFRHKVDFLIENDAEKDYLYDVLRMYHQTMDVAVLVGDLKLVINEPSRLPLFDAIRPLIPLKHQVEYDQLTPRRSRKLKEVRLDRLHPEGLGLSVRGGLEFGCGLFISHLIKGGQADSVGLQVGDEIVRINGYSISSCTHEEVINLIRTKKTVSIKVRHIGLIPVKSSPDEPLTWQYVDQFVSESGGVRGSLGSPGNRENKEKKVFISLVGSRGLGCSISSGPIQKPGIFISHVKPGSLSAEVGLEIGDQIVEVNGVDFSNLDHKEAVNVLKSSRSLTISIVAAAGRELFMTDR

[2] = target: T2, SANS_(CEN-PBM) with YFP-harmonin NPDZ1.PDZ2 ( | human, UniProt Q495M9 300-461; Q9Y6N9-1 1-301)
T2 construct: SANS (USH1G), residues 300-461 of UniProt Q495M9; as m41; Harmonin-a1 (USH1C), human, residues 1-301 of UniProt Q9Y6N9-1; as m31; also called SANS_(CEN-PBM)+^YFPNPDZ1.PDZ2; source: purified E. coli proteins mixed
T2 sequence (looked up) 1: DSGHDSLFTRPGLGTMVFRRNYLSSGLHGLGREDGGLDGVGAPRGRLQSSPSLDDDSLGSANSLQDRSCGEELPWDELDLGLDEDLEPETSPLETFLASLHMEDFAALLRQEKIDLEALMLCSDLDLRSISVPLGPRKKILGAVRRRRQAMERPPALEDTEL
T2 sequence (looked up) 2: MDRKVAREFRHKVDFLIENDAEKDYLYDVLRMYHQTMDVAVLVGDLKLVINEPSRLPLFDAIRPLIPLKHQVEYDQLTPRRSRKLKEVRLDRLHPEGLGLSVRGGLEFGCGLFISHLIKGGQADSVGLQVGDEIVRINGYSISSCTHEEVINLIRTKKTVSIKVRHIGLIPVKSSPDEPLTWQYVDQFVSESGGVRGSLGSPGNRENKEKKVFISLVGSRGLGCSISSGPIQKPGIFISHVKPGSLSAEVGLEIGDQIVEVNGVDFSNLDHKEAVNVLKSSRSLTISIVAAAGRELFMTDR

[3] = target: T3, YFP-ANKS4B_(CEN-PBM) with harmonin NPDZ1.PDZ2 (human, UniProt Q8N8V4 259-417; Q9Y6N9-1 1-301)
T3 construct: ANKS4B, human, residues 259-417 of UniProt Q8N8V4; as m42; Harmonin-a1 (USH1C), human, residues 1-301 of UniProt Q9Y6N9-1; as m30; also called ^YFPANKS4b+NPDZ1.PDZ2; source: purified E. coli proteins mixed; not shown: YFP, N-terminal, kept
T3 sequence (looked up) 1: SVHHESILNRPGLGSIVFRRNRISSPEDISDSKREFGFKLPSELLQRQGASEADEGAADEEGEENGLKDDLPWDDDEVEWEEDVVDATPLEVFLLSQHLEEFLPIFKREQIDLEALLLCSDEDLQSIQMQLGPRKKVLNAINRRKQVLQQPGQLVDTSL
T3 sequence (looked up) 2: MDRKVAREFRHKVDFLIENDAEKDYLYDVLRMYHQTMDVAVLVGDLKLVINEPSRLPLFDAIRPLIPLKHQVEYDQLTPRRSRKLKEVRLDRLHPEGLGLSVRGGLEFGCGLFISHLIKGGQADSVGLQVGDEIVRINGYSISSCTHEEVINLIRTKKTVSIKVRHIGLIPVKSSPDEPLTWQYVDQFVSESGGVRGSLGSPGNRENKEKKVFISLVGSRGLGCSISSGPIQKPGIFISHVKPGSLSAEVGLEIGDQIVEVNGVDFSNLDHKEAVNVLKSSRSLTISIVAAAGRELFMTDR

[4] = target: T4, SANS_(CEN-PBM) with YFP-FL-harmonin-ΔCter ( | human, UniProt Q495M9 300-461; Q9Y6N9-1 1-542)
T4 construct: SANS (USH1G), residues 300-461 of UniProt Q495M9; as m41; Harmonin-a1 (USH1C), human, residues 1-542 of UniProt Q9Y6N9-1; as m28; also called SANS_(CEN-PBM)+^YFPFL ΔCter; source: purified E. coli proteins mixed
T4 sequence (looked up) 1: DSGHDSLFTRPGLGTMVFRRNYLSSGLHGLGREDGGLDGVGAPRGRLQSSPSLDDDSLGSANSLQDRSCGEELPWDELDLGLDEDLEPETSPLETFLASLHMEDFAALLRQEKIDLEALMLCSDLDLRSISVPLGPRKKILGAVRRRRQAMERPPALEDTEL
T4 sequence (looked up) 2: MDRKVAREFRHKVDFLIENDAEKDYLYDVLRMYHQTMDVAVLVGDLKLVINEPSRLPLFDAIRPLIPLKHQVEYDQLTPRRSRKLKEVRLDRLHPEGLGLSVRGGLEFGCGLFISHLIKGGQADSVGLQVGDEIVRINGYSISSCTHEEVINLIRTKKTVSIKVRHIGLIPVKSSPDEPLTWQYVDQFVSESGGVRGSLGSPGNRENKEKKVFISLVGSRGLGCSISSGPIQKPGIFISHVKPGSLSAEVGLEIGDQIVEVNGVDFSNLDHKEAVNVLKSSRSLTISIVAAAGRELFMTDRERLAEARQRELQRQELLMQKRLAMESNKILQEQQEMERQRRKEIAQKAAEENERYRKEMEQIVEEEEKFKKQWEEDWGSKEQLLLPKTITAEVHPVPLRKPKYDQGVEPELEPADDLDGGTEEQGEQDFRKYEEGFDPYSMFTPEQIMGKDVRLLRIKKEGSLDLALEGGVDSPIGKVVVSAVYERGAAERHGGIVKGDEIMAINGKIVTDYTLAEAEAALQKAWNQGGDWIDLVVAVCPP

Measured: Kd

B1: Harmonin-a PDZ3c (non-fluorescent, as used in MST) (domain or fragment, human, UniProt Q9Y6N9-1 428-552, looked up)
chain: QDFRKYEEGFDPYSMFTPEQIMGKDVRLLRIKKEGSLDLALEGGVDSPIGKVVVSAVYERGAAERHGGIVKGDEIMAINGKIVTDYTLAEAEAALQKAWNQGGDWIDLVVAVCPPKEYDDELTFF
notes: Harmonin-a1 (USH1C), human, PDZ3 plus C-terminal peptide, residues 428-552 of UniProt Q9Y6N9-1; The methods say only that samples for ITC or crystallisation were digested with TEV protease; also called PDZ3c (isoA); source: E. coli BL21 (DE3) Rosetta, purified (Glutathione Sepharose 4B, size-exclusion chromatography)
> 100 µM: [1] | [2] | [3] | [4]
